Data from patent US20260234247A1 (published 2026).
Residue numbers refer to the chain shown, from its start.

B1: LK-RB2-1 (antibody, human IgG4 S228P, kappa, V domains shown)
VH: QIQLVQSGPELKKPGETVKISCKASGYTFTTYGMSWVKQAPGKGLKWMGWINTYSGVSTYADDFKGRFAFSLETSASTAYLQINNLKNEDTATYFCARRYDYDGYAMDYWGQGTSVTVSS
VL: DIVMSQSPSSLAVSVGEKVTMSCKSSQSLLFSSNQKNYLAWYQQKPGQSPKLLIYWASTRESGVPDRFTGRGSGTDFTLTISSVKTEDLAVYYCQQYDTYPPTFGGGTKLEIKR
B2: LK-RB2-2 (antibody, human IgG4 S228P, kappa, V domains shown)
VH: DVKLEESGEGLVKPGGSLKLSCAASGFTFSSYAMSWVRQTPEKRLEWVAYISSGGDYFHYADTVKGRFTISRDNARNTLYLQMSSLKSEDTAMYYCTREGAHYDSSYLAWFAHWGQGTLVTVSA
VL: DIQMTQSPASLSVSVGETVTITCRASENIYSNLAWYQQRQGKSPQLLVYAATNLADGVPSRFSGSGSGTQYSLKINSLQSEDFGSYYCQQFWDNPLTFGAGTKLELKR
B3: LK-RB2-13 (antibody, human IgG4 S228P, kappa, V domains shown)
VH: B1 VH with K46Q, S58P, Y60F, E73D, Y100I, D101N, Y102W
VL: B1 VL with I2S, F31Y, S33G, N37S, R71S, T86A, D98Y, T99S, P102Y
B4: LK-RB2-17 (antibody, human IgG4 S228P, kappa, V domains shown)
VH: QIQLVQSGPELKKPGETVKISCKASGYTFTNYGMSWVKQAPGKGLQWMGWINTYSGVPTFADDFRGRFAFSLDTSASTAYLQINSLKNEDTAAYFCARRINWDGYAMDYWGQGTSVTVSS
VL: DSVMSQSPSSLAVSVGEKVTLSCKSSQSLLYSGNQKSYLAWYQQKPGQSPKLLIYWASSRESGVPDRFTGSGSGTDFTLTISSVKAEDLAVYYCQQYYSFPYTFGGGTKLEIKR
B5: LK-RB2-18 (antibody, human IgG4 S228P, kappa, V domains shown)
VH: EVQLQQSGPELVKPGTSVKISCKASGYTFTDYYMNWVKQSHGKSLEWIGDINPNNGGTSYNQKFKGKATLTVDKSSSTAYMELRSLTSEDSAVFYCARSGTTVVGTYWYFDVWGTGTTVTVSS
VL: B2 VL with R39K, A50G, Q90H, N94T, L96F, A100S, L106I
B6: LK-RB2-20 (antibody, human IgG4 S228P, kappa, V domains shown)
VH: QVQLKQPGAERVKPGASVKMSCKASGYTFTRYWITWVKQRPGQGLEWIGDIYPGSATTNYNEKFKSKATLTEDTSSSTAYMQLSSLTSEDSAVYYCARSGDYSNSNYAMDYWGQGTSVTVSS
VL: NIEMTQSPKSMSMAVGERVTLSCKASENVGTYVSWYQQKPEQSPKLLIYGASNRNTGVPDRFTGSGSATDFTLTISSVQAEDLADYHCGQSYSYPFTFGSGTKLEIKR
B7: LK-RB2-25 (antibody, human IgG4 S228P, kappa, V domains shown)
VH: QVQLKESGPGLVAPSQSLSITCTVSGFSLTSYGVHWVRQPPGKGLEWLGVIWAGGSTKYNSALMSRLSINKDNSKSQVFLKMNSLQTDDTAMYYCARDQMVRSAMDYWGQGTSVTVSS
VL: DIQMIQSPSSMFASLGDRVSLSCRASQGIRGNLDWYQQKPGGTIKLLIYSTSNLNSAVPSRFSGSGSGSDYSLTISNLESEDFADYYCLQRNASPYTFGGGTKLEIKR
B8: LK-RB2-31 (antibody, human IgG4 S228P, kappa, V domains shown)
VH: QVQLQQPGAELVKPGASMKLSCKASGYTFTTYYMYWVKQRPGLGLEWIGGINPSNGGTTFNEKFKNKATLTVDKSSSTAYMQLRSLTSEDSAVYYCTRWRFFDVWGAGTTVTVSS
VL: SIVMTQTPEFLLVSAGDRVTITCKASQSVNNDVAWFQQKPGQSPKLLIYYASNRYTGVPDRFTGSGYGTDFTFTISTVQAEDLAIYFCQQDYSSPPTFGGATKLEIKR
B9: LK-RB2-39 (antibody, human IgG4 S228P, kappa, V domains shown)
VH: DVKLVESGGGSVQPGGSLKLSCAASGFTFSDYYMYWVRQTPEKRLEWVAYISNGGGNTYYPDTVKGRFTISRDNAKNTLYLQMSRLKSEDTAMYYCARSNWAWYFDVWGTGTTVTVSS
VL: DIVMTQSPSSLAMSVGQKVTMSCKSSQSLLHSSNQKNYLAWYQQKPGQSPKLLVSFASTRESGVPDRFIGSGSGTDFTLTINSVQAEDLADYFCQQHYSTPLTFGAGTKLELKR
B10: LK-RB2-46 (antibody, human IgG4 S228P, kappa, V domains shown)
VH: QVQMQQSDAELVKPGASVKISCKVSGYTFTDQIIHWMKQRPEQGLEWIGYIYPRDDSIMYNEKFKGKATLTADKSSSTANMQLNSLTSEDSAVYFCAYDAYWYFDVWGTGTTVIVSS
VL: DIVMTQSHKFMSASVGDRVSITCKASQDVNTAVAWYRQDPGQSPKLLIYWASTRHTGVPDRFTGSGSGTDYTLTINNFQAEDLALYYCQQHYSPPLTFGAGTKLELKR
B11: p1E1 (antibody, human IgG4 S228P, kappa, V domains shown)
VH: EVQLQQWGAGLLKPSETLSLTCAVYGGSFSGYYWSWIRQPPGKGLEWIGEINHSGSTNYNPSLKSRVTISVDTSKNQFSLKLSSVTAADTAVYYCARLPTRWVTTRYFDLWGRGTLVTVSS
VL: ESVLTQPPSVSGAPGQRVTISCTGSSSNIGAGYDVHWYQQLPGTAPKLLIYGNSNRPSGVPDRFSVSKSGASASLAITGLQAEDEADYYCQSFDNSLSAYVFGGGTQLTVLG
B12: LK-RB2-43 (antibody, human IgG4 S228P, kappa, V domains shown)
VH: EVQLVESGGDLVKPGGSLKLSCAASGFTFSSYGMSWVRQTPDKRLEWVATISGGGTYTYYPDSVKGRFTISRDNAKNTLYLQMSSLKSEDTAMYYCASGAMDYWGQGTSVTVSS
VL: QIVLTQSPAILSASPGEKVTMTCSANSSVSSMYKYQQKPGSSPKPWIYGTSNLASGVPARFSGSGSGTSYSLTISSMEAADAATYYCQQYHSHPLTFGAGTKLELKR
B13: LK-RB2-44 (antibody, human IgG4 S228P, kappa, V domains shown)
VH: B12 VH
VL: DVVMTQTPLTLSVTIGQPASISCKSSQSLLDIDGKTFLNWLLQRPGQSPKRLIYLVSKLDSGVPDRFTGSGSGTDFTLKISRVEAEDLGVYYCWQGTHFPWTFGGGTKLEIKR
B14: LK-RB2-47 (antibody, human IgG4 S228P, kappa, V domains shown)
VH: QVQLKQSGPGLVQPSQSLSITCTVSGFSLISYGVHWVRQSPGKGLEWLGVIWSGGSTDYNAAFISRLSISKDNSKSQVFFKMNSLQADDTAIYYCARSFHYHGSTFDYWGQGTTLTVSS
VL: DIQMTQTTSSLSASLGDRVIISCRASQDINNYLNWYQQKPDGTVKLLIYFTSRLHSGVPSSFSGSGSGTDYSLTINNLEQEDIATYFCQQVNTLPYTFGGGTKLEIKR
B15: LK-RB2-27 (antibody, human IgG4 S228P, kappa, V domains shown)
VH: DVKLVESGGGLVKPGGSLKLSCAASGFTFSSYSMSWVRQTPEKRLEWVATISTGGSYTYYPDSVKGRFTISRDNAKNTLYLQMSSLKSEDTAMFYCTRGSMDYWGQGTSVTVSS
VL: DILMTQSPSSMSVSLGDTVSITCHASQDISSNIGWLQQKPGNSFKGLIYHGTNLEDGVPSRFSGSGSGADYSLTISSLESEDFADYYCVQYAQFPYTFGGGTKLEIKR
B16: LK-RB2-28 (antibody, human IgG4 S228P, kappa, V domains shown)
VH: B15 VH with V64M
VL: B15 VL with T22A
B17: LK-RB2-34 (antibody, human IgG4 S228P, kappa, V domains shown)
VH: B15 VH with L4V, G55S, P61S
VL: B15 VL with T52I
B18: LK-RB2-29 (antibody, human IgG4 S228P, kappa, V domains shown)
VH: QVQLQQSGAELARPGASVKLSCKASGYTFTSYWMQWVKQRPGQGLEWIGAIYPGDGDTRYTQKFKGKATLTADKSSSTAYMQLSSLASEDSAVYYCARGYYGSSYADYFDYWGQGTTLTVSS
VL: DIQMTQSPASLSASVGETVTITCRASGNIHNYLAWYQQKQGKSPQLLVYNAKTLADGVPSRFSGSGSGTQYSLKINSLQPEDFGSYYCQHFWSTPPTFGGGTKLEIKR
B19: LK-RB2-30 (antibody, human IgG4 S228P, kappa, V domains shown)
VH: EVQLVESGGGLVQPGGSLKLSCAASGFTFNTDGMSWVRQTPDKRLELVAIINSNGGSTYYPDSVKGRFTISRDNAKNTLYLQMSSLKSEDTAMYYCAREGSYGSWFAYWGQGTLVTVSA
VL: B2 VL with Y30N, S31N, Q37H, R39K, Q90H, D93G, N94T, L96F, A100G, L106I
B20: LK-RB2-38 (antibody, human IgG4 S228P, kappa, V domains shown)
VH: B9 VH with D1E, S11L, T28S, T78S, A92G, S99D, N100R, W101E, A102D
VL: DIVMTQSHTFMSTSVGDRVSITCKASQDVSTAVAWYQQKPGQSPKLLIYWASTRHTGVPDRFTGSGSGTDYTLTISSVQAEDLALYYCQQHYSTPRTFGGGTKLEIKR
B21: LK-RB2-42 (antibody, human IgG4 S228P, kappa, V domains shown)
VH: EFQLQQSGPELVKPGASVKISCKASGYSFTDYNMNWVKQSNGKSLDWIGIINPKYGTTAYNQKLRDKATLTVDQSSSTAYMQLNSLTSEDSAVYYCASLNWDEGFAYWGQGTLVTVSP
VL: DVLMTQTPLSLPVSLGDQASISCRSSQSIVHSNGNTYLEWYLQKPGQPPKLLIYKVSNRFSGVPERFSGSGSGTDFTLKINRVEAEDLGVYYCFQGSLVPPTFGGGTKLEIKR

Each binder was assayed against T1, human LILRB1 expressed on CHOK1 cells (CHOK1-hLILRB1) (human, UniProt Q8NHL6 24-650) (assay: FACS binding to CHOK1-hLILRB1 cells).
T1 construct: whole, on cells; also called CHOK1-LILRB1
T1 sequence (Q8NHL6 24-650): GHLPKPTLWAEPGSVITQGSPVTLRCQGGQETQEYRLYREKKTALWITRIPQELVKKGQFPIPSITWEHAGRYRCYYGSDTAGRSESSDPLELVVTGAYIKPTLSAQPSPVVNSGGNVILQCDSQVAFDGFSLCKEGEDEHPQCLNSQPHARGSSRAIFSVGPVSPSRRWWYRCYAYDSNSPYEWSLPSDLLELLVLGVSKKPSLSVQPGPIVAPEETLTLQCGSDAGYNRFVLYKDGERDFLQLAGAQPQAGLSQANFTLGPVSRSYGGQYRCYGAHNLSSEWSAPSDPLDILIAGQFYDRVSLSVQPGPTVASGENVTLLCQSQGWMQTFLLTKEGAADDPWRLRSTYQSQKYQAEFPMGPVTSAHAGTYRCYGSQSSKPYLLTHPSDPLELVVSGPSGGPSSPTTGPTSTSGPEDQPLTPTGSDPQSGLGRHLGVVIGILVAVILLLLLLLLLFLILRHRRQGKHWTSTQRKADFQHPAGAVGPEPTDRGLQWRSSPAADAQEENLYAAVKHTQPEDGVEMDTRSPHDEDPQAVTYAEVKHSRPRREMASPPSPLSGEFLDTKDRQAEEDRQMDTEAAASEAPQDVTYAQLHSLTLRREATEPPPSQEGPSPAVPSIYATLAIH

Row | Binder | binding result | EC50
1 | B1 | no binding | –
2 | B2 | no binding | –
3 | B3 | no binding | –
4 | B4 | no binding | –
5 | B5 | no binding | –
6 | B6 | no binding | –
7 | B7 | – | 1.71 nM
8 | B8 | – | 1.99 nM
9 | B9 | no binding | –
10 | B10 | no binding | –
11 | B11 | no binding | –
12 | B12 | no binding | –
13 | B13 | no binding | –
14 | B14 | no binding | –
15 | B15 | no binding | –
16 | B16 | no binding | –
17 | B17 | no binding | –
18 | B18 | no binding | –
19 | B19 | no binding | –
20 | B20 | no binding | –
21 | B21 | no binding | –

What follows are binders tested against T2, human LILRB2 expressed on CHOK1 cells (CHOK1-hLILRB2) (human, UniProt Q8N423 22-597) (assay: FACS binding to CHOK1-hLILRB2 cells).
T2 construct: whole, on cells; also called CHOK1-LILRB2
T2 sequence (Q8N423 22-597): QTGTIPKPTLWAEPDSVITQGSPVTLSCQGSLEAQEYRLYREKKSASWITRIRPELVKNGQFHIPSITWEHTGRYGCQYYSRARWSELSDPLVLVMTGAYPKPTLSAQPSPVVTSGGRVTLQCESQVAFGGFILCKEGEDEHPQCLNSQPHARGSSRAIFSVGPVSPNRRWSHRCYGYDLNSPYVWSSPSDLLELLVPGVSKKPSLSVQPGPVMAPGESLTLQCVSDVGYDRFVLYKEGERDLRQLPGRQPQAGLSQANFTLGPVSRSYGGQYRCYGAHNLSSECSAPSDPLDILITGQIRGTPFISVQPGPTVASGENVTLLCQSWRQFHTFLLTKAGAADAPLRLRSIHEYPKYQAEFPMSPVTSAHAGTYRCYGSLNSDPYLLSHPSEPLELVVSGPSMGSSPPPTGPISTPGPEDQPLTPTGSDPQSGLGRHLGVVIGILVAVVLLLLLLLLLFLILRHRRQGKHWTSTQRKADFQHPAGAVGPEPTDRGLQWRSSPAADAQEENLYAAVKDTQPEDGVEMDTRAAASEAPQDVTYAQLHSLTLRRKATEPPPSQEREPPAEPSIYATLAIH

Row | Binder | EC50 | binding result
22 | B1 | 0.24 nM | –
23 | B2 | 0.25 nM | –
24 | B3 | 0.23 nM | –
25 | B4 | 0.16 nM | –
26 | B5 | 0.14 nM | –
27 | B6 | 0.14 nM | –
28 | B7 | – | no binding
29 | B8 | – | no binding
30 | B9 | 36.6 nM | –
31 | B10 | 0.35 nM | –
32 | B11 | 0.64 nM | –
33 | B12 | – | no binding
34 | B13 | – | no binding
35 | B14 | – | no binding
36 | B15 | – | no binding
37 | B16 | – | no binding
38 | B17 | – | no binding
39 | B18 | – | no binding
40 | B19 | – | no binding
41 | B20 | – | no binding
42 | B21 | – | no binding

The binders below were run against T2, human LILRB2 expressed on CHOK1 cells … (assay: cell based RBA, flow cytometry: blocking of HLA-G binding to CHOK1-hLILRB2 cells).

Row | Binder | EC50 | Top Inhibition
43 | B1 | 0.323 nM | 73.7%
44 | B2 | 0.134 nM | 74.5%
